For one series, the target named is Fibrinogen (UniProt P02671).
Series [1] has as its target Ecarin-activatable E-WE Prethrombin-2 (W215A/E217A/N282D/P283G).

UniProt P02671, sequence (P02671 20-629, chain 1 of 3): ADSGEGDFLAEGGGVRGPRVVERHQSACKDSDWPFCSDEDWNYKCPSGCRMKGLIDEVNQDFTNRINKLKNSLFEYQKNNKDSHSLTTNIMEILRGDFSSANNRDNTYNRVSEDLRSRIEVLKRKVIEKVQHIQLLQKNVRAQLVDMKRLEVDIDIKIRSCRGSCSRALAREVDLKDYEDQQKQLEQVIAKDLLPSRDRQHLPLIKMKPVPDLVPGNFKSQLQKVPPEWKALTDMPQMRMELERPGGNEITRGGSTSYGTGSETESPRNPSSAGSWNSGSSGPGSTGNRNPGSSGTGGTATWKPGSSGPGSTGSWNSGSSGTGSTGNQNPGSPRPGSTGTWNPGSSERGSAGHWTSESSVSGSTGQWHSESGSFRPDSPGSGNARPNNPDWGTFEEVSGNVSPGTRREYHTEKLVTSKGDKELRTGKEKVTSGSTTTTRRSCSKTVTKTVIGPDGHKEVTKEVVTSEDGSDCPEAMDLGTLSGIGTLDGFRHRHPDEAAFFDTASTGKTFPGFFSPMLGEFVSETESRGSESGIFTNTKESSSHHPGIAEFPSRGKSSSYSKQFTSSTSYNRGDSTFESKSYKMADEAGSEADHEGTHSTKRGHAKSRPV
UniProt P02671, sequence (chain, as listed by the source, chain 2 of 3): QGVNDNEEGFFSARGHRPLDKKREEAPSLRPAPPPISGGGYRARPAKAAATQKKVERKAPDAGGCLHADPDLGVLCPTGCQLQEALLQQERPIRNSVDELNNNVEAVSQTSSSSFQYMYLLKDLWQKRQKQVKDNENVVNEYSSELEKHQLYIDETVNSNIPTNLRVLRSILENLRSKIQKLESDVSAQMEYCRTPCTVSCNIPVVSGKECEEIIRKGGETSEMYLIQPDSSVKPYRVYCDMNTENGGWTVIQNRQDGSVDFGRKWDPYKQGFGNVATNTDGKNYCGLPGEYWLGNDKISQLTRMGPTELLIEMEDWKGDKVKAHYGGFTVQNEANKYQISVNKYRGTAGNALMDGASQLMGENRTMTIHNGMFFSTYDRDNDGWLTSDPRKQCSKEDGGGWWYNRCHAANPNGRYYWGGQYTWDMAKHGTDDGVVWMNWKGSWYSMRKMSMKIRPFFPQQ
UniProt P02671, sequence (chain, as listed by the source, chain 3 of 3): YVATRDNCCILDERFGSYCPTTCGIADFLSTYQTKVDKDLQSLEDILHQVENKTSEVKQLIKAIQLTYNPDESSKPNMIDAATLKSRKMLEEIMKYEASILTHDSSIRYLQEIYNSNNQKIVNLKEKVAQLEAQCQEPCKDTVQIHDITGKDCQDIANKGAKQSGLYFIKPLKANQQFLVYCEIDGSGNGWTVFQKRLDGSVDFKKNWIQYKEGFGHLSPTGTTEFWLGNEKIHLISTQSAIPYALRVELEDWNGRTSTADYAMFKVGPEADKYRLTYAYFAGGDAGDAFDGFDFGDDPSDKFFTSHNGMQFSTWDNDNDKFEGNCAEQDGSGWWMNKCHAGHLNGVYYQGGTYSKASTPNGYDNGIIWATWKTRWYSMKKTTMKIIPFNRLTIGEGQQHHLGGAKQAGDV

For the molecule “E. coli-derived recombinant E-WE thrombin (W215A/E217A), prepared from E-WE prethrombin-2 expressed in E. coli”, in the series with Fibrinogen, the specificity toward fibrinogen entry is given as “consistently shows lower specificity toward fibrinogen compared to the BHK-expressed construct”.
“WE thrombin (W215A/E217A) prepared from WE prethrombin-1 expressed in BHK cells”: the activity toward fibrinogen result with Fibrinogen was “BHK produces a construct with significantly higher activity toward FPR and fibrinogen”.

B1: Echis carinatus snake venom prothrombin activator (ecarin) (protein)
chain: VPPHERKFEKKFIELVVVVDHSMVTKYNNDSTAIRTWIYEMLNTVNEIYLPFNIRVALVGLEFWCNGDLINVTSTADDTLHSFGEWRASDLLNRKRHDHAQLLTNVTLDHSTLGITFVYGMCKSDRSVELILDYSNITFNMAYIIAHEMGHSLGMLHDTKFCTCGAKPCIMFGKESIPPPKEFSSCSYDQYNKYLLKYNPKCILDPPLRKDIASPAVCGNEIWEEGEECDCGSPADCRNPCCDAATCKLKPGAECGNGECCDKCKIRKAGTECRPARDDCDVAEHCTGQSAECPRNEFQRNGQPCLNNSGYCYNGDCPIMLNQCIALFSPSATVAQDSCFQRNLQGSYYGYCTKEIGYYGKRFPCAPQDVKCGRLYCLDNSFKKNMRCKNDYSYADENKGIVEPGTKCEDGKVCINRKCVDVNTAY
Consider B1, for which, in series [1], the “proteolytic cleavage at the engineered ecarin site” value is “Cleavage also occurred at the engineered ecarin site that had been introduced preceding the A chain”; the “proteolytic cleavage between the A and B chains” value is “The expected cleavage took place between the A and B chains to form an A chain-extended E-WE thrombin”.

These data come from patent publication US20120164129.
